Data reported in the RNAGym collection of RNA variant scans (doi:10.7554/elife.80360).

B1: CPEB3 Ribozyme (parent)
chain: GGGGGCCACAGCAGAAGCGUUCACGUCGCGGCCCCUGUCAGAUUCUGGUGAAUCUGCGAAUUCUGCUGU

Variants of: B1
Test: self-cleavage, relative activity (ratio to wild type); higher = more cleavage; co-transcriptional

**Q.** Which self-cleavage does the source give for GGGGGCCACAGCAGAAGCGUUCACGUCGCGGCCCCUGUCAGAUUCUGGUGAGUGUGCGAAUUCUGCUGU here?
**A.** The self-cleavage was 0.861.

**Q.** Which self-cleavage does the source give for GGGGGCCACAGCAGAAGCGUUCACGUCGCGGCCCCUGUCAGAUUCUGGUGAUUUUGCGAAUUCUGCUGU here?
**A.** The self-cleavage was 0.976.

**Q.** For GGGGGCCACAGCAGAAGCGUUCACGUCGCGGCCCCUGUCAGAUUCUGGUGAUUCUGCGAAUUUUGCUGU, which self-cleavage is on record?
**A.** Its self-cleavage is 0.954.

**Q.** For GGGGGCCACAGCAGAAGCGUUCACGUCGCGGCCCCUGUCAGAUUCUGGUGUAUCUGCGAACUCUGCUGU, which self-cleavage is on record?
**A.** Its self-cleavage is 0.808.

**Q.** Which self-cleavage does the source give for GGGGGCCACAGCAGAAGCGUUCACGUCGCGGCCCCUGUCAGAUUCUGGUGAUUCUGCGAAUUCUGCAGU here?
**A.** Its self-cleavage is 0.978.

**Q.** For GGGGGCCACAGCAGAAGCGUUCACGUCGCGGCCCCUGUCAGAUUCUGGUGAGUCUGCCAAUUCUGCUGU, which self-cleavage is on record?
**A.** The self-cleavage was 0.972.

**Q.** Which self-cleavage does the source give for GGGGGCCACAGCAGAAGCGUUCACGUCGCGGCCCCUGUCAGAUUCUGGUGAGUCUGAGAAUUCUGCUGU here?
**A.** Its self-cleavage is 0.343.

**Q.** Which self-cleavage does the source give for GGGGGCCACAGCAGAAGCGUUCACGUCGCGGCCCCUGUCAGAUUCUGGUGACUCUACGAAUUCUGCUGU here?
**A.** The self-cleavage was 0.826.

**Q.** With GGGGGCCACAGCAGAAGCGUUCACGUCGCGGCCCCUGUCAGAUUCUGGUGAAACCGCGAAUUCUGCUGU as the variant, how does the self-cleavage read?
**A.** Its self-cleavage is 0.43.

**Q.** With GGGGGCCACAGCAGAAGCGUUCACGUCGCGGCCCCUGUCAGAUUCUGGUGAAACGGCGAAUUCUGCUGU as the variant, how does the self-cleavage read?
**A.** Its self-cleavage is 0.411.

**Q.** With GGGGGCCACAGCAGAAGCGUUCACGUCGCGGCCCCUGUCAGAUUCUGGUGACUCUGCGACUUCUGCUGU as the variant, how does the self-cleavage read?
**A.** The self-cleavage was 0.398.

**Q.** For GGGGGCCACAGCAGAAGCGUUCACGUCGCGGCCCCUGUCAGAUUCUGGUGACUCUGCGAGUUCUGCUGU, which self-cleavage is on record?
**A.** The self-cleavage was 0.839.

**Q.** Which self-cleavage does the source give for GGGGGCCACAGCAGAAGCGUUCACGUCGCGGCCCCUGUCAGAUUCUGGUGACUCUGUGAAUUCUGCUGU here?
**A.** The self-cleavage was 0.398.

**Q.** Which self-cleavage does the source give for GGGGGCCACAGCAGAAGCGUUCACGUCGCGGCCCCUGUCAGAUUCUGGUGACUCUGAGAAUUCUGCUGU here?
**A.** The self-cleavage was 0.414.

**Q.** For GGGGGCCACAGCAGAAGCGUUCACGUCGCGGCCCCUGUCAGAUUCUGGUGAGUCUGCGAAUUCUGGUGU, which self-cleavage is on record?
**A.** The self-cleavage was 0.966.

**Q.** Which self-cleavage does the source give for GGGGGCCACAGCAGAAGCGUUCACGUCGCGGCCCCUGUCAGAUUCUGGUGAGUCUGCGGAUUCUGCUGU here?
**A.** Its self-cleavage is 0.98.

**Q.** With GGGGGCCACAGCAGAAGCGUUCACGUCGCGGCCCCUGUCAGAUUCUGGUGAGUCUGCGCAUUCUGCUGU as the variant, how does the self-cleavage read?
**A.** Its self-cleavage is 0.793.

**Q.** For GGGGGCCACAGCAGAAGCGUUCACGUCGCGGCCCCUGUCAGAUUCUGGUGAGUCUGCGUAUUCUGCUGU, which self-cleavage is on record?
**A.** The self-cleavage was 0.82.

**Q.** For GGGGGCCACAGCAGAAGCGUUCACGUCGCGGCCCCUGUCAGAUUCUGGUGACUCUGCGUAUUCUGCUGU, which self-cleavage is on record?
**A.** Its self-cleavage is 0.68.

**Q.** With GGGGGCCACAGCAGAAGCGUUCACGUCGCGGCCCCUGUCAGAUUCUGGUGAUUCUUCGAAUUCUGCUGU as the variant, how does the self-cleavage read?
**A.** Its self-cleavage is 0.848.

**Q.** With GGGGGCCACAGCAGAAGCGUUCACGUCGCGGCCCCUGUCAGAUUCUGGUGAUUCUACGAAUUCUGCUGU as the variant, how does the self-cleavage read?
**A.** Its self-cleavage is 0.909.

**Q.** With GGGGGCCACAGCAGAAGCGUUCACGUCGCGGCCCCUGUCAGAUUCUGGUGUAUCUUCGAAUUCUGCUGU as the variant, how does the self-cleavage read?
**A.** The self-cleavage was 0.879.

**Q.** With GGGGGCCACAGCAGAAGCGUUCACGUCGCGGCCCCUGUCAGAUUCUGGUGUAUCUCCGAAUUCUGCUGU as the variant, how does the self-cleavage read?
**A.** The self-cleavage was 0.486.

**Q.** Which self-cleavage does the source give for GGGGGCCACAGCAGAAGCGUUCACGUCGCGGCCCCUGUCAGAUUCUGGUGUAUCUACGAAUUCUGCUGU here?
**A.** The self-cleavage was 0.889.

**Q.** For GGGGGCCACAGCAGAAGCGUUCACGUCGCGGCCCCUGUCAGAUUCUGGUGACUCUGCGAAUGCUGCUGU, which self-cleavage is on record?
**A.** The self-cleavage was 0.806.

**Q.** Which self-cleavage does the source give for GGGGGCCACAGCAGAAGCGUUCACGUCGCGGCCCCUGUCAGAUUCUGGUGAAACUGAGAAUUCUGCUGU here?
**A.** The self-cleavage was 0.402.

**Q.** With GGGGGCCACAGCAGAAGCGUUCACGUCGCGGCCCCUGUCAGAUUCUGGUGAAACUACGAAUUCUGCUGU as the variant, how does the self-cleavage read?
**A.** Its self-cleavage is 0.736.

**Q.** Which self-cleavage does the source give for GGGGGCCACAGCAGAAGCGUUCACGUCGCGGCCCCUGUCAGAUUCUGGUGAAACUCCGAAUUCUGCUGU here?
**A.** The self-cleavage was 0.411.

**Q.** Which self-cleavage does the source give for GGGGGCCACAGCAGAAGCGUUCACGUCGCGGCCCCUGUCAGAUUCUGGUGACUCUGCGAAUUCUGCUGA here?
**A.** The self-cleavage was 0.977.

**Q.** With GGGGGCCACAGCAGAAGCGUUCACGUCGCGGCCCCUGUCAGAUUCUGGUGAAACUGCGAAUUCUGCUGC as the variant, how does the self-cleavage read?
**A.** Its self-cleavage is 1.06.

**Q.** With GGGGGCCACAGCAGAAGCGUUCACGUCGCGGCCCCUGUCAGAUUCUGGUGAUUCUGCGAAUUCUGCUAU as the variant, how does the self-cleavage read?
**A.** Its self-cleavage is 0.975.

**Q.** For GGGGGCCACAGCAGAAGCGUUCACGUCGCGGCCCCUGUCAGAUUCUGGUGAAACUGCGAAUUCUGAUGU, which self-cleavage is on record?
**A.** Its self-cleavage is 0.509.

**Q.** With GGGGGCCACAGCAGAAGCGUUCACGUCGCGGCCCCUGUCAGAUUCUGGUGAGUCCGCGAAUUCUGCUGU as the variant, how does the self-cleavage read?
**A.** Its self-cleavage is 0.722.

**Q.** For GGGGGCCACAGCAGAAGCGUUCACGUCGCGGCCCCUGUCAGAUUCUGGUGUAUAUGCGAAUUCUGCUGU, which self-cleavage is on record?
**A.** Its self-cleavage is 0.633.

**Q.** For GGGGGCCACAGCAGAAGCGUUCACGUCGCGGCCCCUGUCAGAUUCUGGUGAGUCUGCGAAAUCUGCUGU, which self-cleavage is on record?
**A.** The self-cleavage was 0.89.

**Q.** For GGGGGCCACAGCAGAAGCGUUCACGUCGCGGCCCCUGUCAGAUUCUGGUGAGUCUGCGAAGUCUGCUGU, which self-cleavage is on record?
**A.** The self-cleavage was 0.861.

**Q.** Which self-cleavage does the source give for GGGGGCCACAGCAGAAGCGUUCACGUCGCGGCCCCUGUCAGAUUCUGGUGAUUCUGCGAAUCCUGCUGU here?
**A.** Its self-cleavage is 0.765.

**Q.** With GGGGGCCACAGCAGAAGCGUUCACGUCGCGGCCCCUGUCAGAUUCUGGUGACUCUGCGAAUUAUGCUGU as the variant, how does the self-cleavage read?
**A.** The self-cleavage was 0.795.

**Q.** With GGGGGCCACAGCAGAAGCGUUCACGUCGCGGCCCCUGUCAGAUUCUGGUGAUUCUGCGAAUUCAGCUGU as the variant, how does the self-cleavage read?
**A.** The self-cleavage was 0.87.
